B1: His-6-Munc18c [not stated] / Sx4-GST, wild-type Syntaxin 4 cytosolic domain (residues 1-273) [not stated] (parent complex)
chain 1: MAPPVSERGLKSVVWRKIKTAVFDDCRKEGEWKIMLLDEFTTKLLSSCCKMTDLLEEGITVIENIYKNREPVRQMKALYFISPTPKSVDCFLRDFGSKSEKKYKAAYIYFTDFCPDSLFNKIKASCSKSIRRCKEINISFIPQESQVYTLDVPDAFYYCYSPDPSNASRKEVVMEAMAEQIVTVCATLDENPGVRYKSKPLDNASKLAQLVEKKLEDYYKIDEKGLIKGKTQSQLLIIDRGFDPVSTVLHELTFQAMAYDLLPIENDTYKYKTDGKEKEAVLEEDDDLWVRVRHRHIAVVLEEIPKLMKEISSTKKATEGKTSLSALTQLMKKMPHFRKQISKQVVHLNLAEDCMNKFKLNIEKLCKTEQDLALGTDAEGQRVKDSMLVLLPVLLNKNHDNCDKIRAVLLYIFGINGTTEENLDRLIHNVKIEDDSDMIRNWSHLGVPIVPPSQQAKPLRKDRSAEETFQLSRWTPFIKDIMEDAIDNRLDSKEWPYCSRCPAVWNGSGAVSARQKPRTNYLELDRKNGSRLIIFVIGGITYSEMRCAYEVSQAHKSCEVIIGSTHILTPRKLLDDIKMLNKSKDKVSFKDE
chain 2: MRDRTHELRQGDNISDDEDEVRVALVVHSGAARLGSPDDEFFQKVQTIRQTMAKLESKVRELEKQQVTILATPLPEESMKQGLQNLREEIKQLGREVRAQLKAIEPQKEEADENYNSVNTRMKKTQHGVLSQQFVELINKCNSMQSEYREKNVERIRRQLKITNAGMVSDEELEQMLDSGQSEVFVSNILKDTQVTRQALNEISARHSEIQQLERSIRELHEIFTFLATEVEMQGEMINRIEKNILSSADYVERGQEHVKIALENQKKARKKK
B2: His-6-Munc18c [not stated] / Sx4 lacking the N-terminal 36 amino acids (N36Δ), GST fusion [not stated] (parent complex)
chain 1: B1 chain 1
chain 2: PDDEFFQKVQTIRQTMAKLESKVRELEKQQVTILATPLPEESMKQGLQNLREEIKQLGREVRAQLKAIEPQKEEADENYNSVNTRMKKTQHGVLSQQFVELINKCNSMQSEYREKNVERIRRQLKITNAGMVSDEELEQMLDSGQSEVFVSNILKDTQVTRQALNEISARHSEIQQLERSIRELHEIFTFLATEVEMQGEMINRIEKNILSSADYVERGQEHVKIALENQKKARKKK

In the first test the parent is B1. The experiment in a line: GST pull-down, anti-Munc18c immunoblot quantification; 1 μg GST fusion on glutathione-Sepharose, 1 μg Munc18c, binding buffer, overnight, 4°C; read off a plot.
In the case of chain 2 L173A, chain 2 E174A, the percent of parent is ~73 % of wild-type Sx4.

The variants in a further test derive from B1. The test can be described thus: GST pull-down, anti-Munc18c immunoblot quantification; 1 μg GST fusion on glutathione-Sepharose, 1 μg Munc18c, binding buffer, overnight, 4°C; n=3; read off a plot.
For chain 2 L173A, chain 2 E174A, the percent of parent is ~89 % of wild-type Sx4.

In the next test the parent is B2. The test can be described thus: GST pull-down, anti-Munc18c immunoblot quantification; 1 μg GST fusion on glutathione-Sepharose, 1 μg Munc18c, binding buffer, overnight, 4°C; read off a plot.
For chain 2 L137A, chain 2 E138A, the screen value is ~13 % of wild-type Sx4.

Variants of B2 are the subject of the next test. The test can be described thus: GST pull-down, anti-Munc18c immunoblot quantification; 1 μg GST fusion on glutathione-Sepharose, 1 μg Munc18c, binding buffer, overnight, 4°C; n=3; read off a plot.
With chain 2 L137A, chain 2 E138A, the screen value is ~18 % of wild-type Sx4.

(Values after PMC3103433 (2011).)
